Results: publication PMC9482650, “Quantitative fragmentomics allow affinity mapping of interactomes” (Nature Communications, 2022)

Experiments:
Assay in all cases: holdup assay
Set-up in all cases: key: below the threshold = too weak to quantify, mostly under pKd 3.1 to 4
Conditions in all cases: plain residues with an end cap or a label only (N-terminal biotin on a linker: ado-ado)
MAGI2_3, Q86UL8 = biological target: MAGI2_3, Q86UL8
NHERF4_2, Q86UT5 = biological target: NHERF4_2, Q86UT5
LNX1_1, Q8TBB1 = biological target: LNX1_1, Q8TBB1
FRMPD2_1, Q68DX3 = biological target: FRMPD2_1, Q68DX3
TJP1_3, Q07157 = biological target: TJP1_3, Q07157
PDLIM1, O00151 = biological target: PDLIM1, O00151
FRMPD2_2, Q68DX3 = biological target: FRMPD2_2, Q68DX3
HTRA2, O43464 = biological target: HTRA2, O43464
PDZD2_2, O15018 = biological target: T1, PDZD2_2, O15018
T1 sequence (O15018 329-429, limits assumed, looked up): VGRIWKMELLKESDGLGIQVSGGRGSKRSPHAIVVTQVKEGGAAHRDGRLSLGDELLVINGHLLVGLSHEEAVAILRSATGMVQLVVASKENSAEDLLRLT

DLG4_2, P78352 = biological target: DLG4_2, P78352
SCRIB_3, Q14160 = biological target: SCRIB_3, Q14160
DLG4_3, P78352 = biological target: DLG4_3, P78352
Inadl_1, Q8NI35 = biological target: Inadl_1, Q8NI35
HTRA3, P83110 = biological target: T2, HTRA3, P83110
T2 sequence (P83110 354-453, limits assumed, looked up): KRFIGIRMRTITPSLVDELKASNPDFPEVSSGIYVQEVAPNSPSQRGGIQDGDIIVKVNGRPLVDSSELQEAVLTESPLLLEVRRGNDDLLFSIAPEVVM

TIAM2, Q8IVF5 = biological target: T3, TIAM2, Q8IVF5
T3 sequence (Q8IVF5 885-986, limits assumed, looked up): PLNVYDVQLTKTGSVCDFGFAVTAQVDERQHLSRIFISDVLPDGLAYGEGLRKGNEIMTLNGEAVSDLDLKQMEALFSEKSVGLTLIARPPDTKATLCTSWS

GOPC, Q9HD26 = biological target: GOPC, Q9HD26
RAPGEF6, Q8TEU7 = biological target: T4, RAPGEF6, Q8TEU7
T4 sequence (Q8TEU7 525-625, limits assumed, looked up): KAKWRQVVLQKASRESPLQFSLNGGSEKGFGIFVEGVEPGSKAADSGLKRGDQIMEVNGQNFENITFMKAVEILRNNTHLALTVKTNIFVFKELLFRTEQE

LAP2, Q96RT1 = biological target: LAP2, Q96RT1
LIN7B, Q9HAP6 = biological target: T5, LIN7B, Q9HAP6
T5 sequence (Q9HAP6 88-185, limits assumed, looked up): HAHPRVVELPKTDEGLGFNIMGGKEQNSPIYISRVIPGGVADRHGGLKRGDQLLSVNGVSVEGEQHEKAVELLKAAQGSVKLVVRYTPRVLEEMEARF

Inadl_9, Q8NI35 = biological target: Inadl_9, Q8NI35
GRIP2_4, Q9C0E4 = biological target: GRIP2_4, Q9C0E4
IL16_4, Q14005 = biological target: IL16_4, Q14005
TX1BP3, O14907 = biological target: T6, TX1BP3, O14907
T6 sequence (O14907 10-122, limits assumed, looked up): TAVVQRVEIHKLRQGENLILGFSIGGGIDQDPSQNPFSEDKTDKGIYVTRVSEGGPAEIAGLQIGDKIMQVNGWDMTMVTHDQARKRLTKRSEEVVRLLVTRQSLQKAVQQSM

SNTG1, Q9NSN8 = biological target: T7, SNTG1, Q9NSN8
T7 sequence (Q9NSN8 52-150, limits assumed, looked up): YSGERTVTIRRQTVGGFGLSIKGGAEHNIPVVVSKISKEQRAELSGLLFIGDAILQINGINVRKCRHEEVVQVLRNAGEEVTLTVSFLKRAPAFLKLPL

DLG3_1, Q92796 = biological target: T8, DLG3_1, Q92796
T8 sequence (Q92796 125-227, limits assumed, looked up): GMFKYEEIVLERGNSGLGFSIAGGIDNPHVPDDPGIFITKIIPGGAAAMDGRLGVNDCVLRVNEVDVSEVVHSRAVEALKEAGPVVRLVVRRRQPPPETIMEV

Inadl_6, Q8NI35 = biological target: Inadl_6, Q8NI35
PCLO, Q9Y6V0 = biological target: T9, PCLO, Q9Y6V0
T9 sequence (Q9Y6V0 4491-4600, limits assumed, looked up): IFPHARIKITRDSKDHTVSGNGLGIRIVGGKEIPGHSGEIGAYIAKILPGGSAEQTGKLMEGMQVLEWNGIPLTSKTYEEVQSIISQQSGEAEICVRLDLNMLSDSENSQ

TJP2_1, Q9UDY2 = biological target: TJP2_1, Q9UDY2
Sequence of TJP2_1, Q9UDY2 (Q9UDY2 24-128): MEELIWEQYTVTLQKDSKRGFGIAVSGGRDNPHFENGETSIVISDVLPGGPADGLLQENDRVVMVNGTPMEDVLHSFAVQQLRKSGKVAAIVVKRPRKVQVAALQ

Sequence of FRMPD2_2, Q68DX3 (Q68DX3 944-1038): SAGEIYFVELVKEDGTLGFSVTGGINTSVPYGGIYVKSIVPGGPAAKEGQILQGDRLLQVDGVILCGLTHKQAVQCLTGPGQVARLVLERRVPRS
Sequence of SCRIB_3, Q14160 (Q14160 999-1103): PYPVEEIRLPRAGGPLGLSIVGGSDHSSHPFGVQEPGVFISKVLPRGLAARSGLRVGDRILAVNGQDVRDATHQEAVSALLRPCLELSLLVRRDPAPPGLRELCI
Sequence of DLG4_3, P78352 (P78352 306-403): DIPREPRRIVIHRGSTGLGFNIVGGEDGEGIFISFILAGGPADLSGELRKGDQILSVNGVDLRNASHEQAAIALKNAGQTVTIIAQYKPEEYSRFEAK
Sequence of TJP1_3, Q07157 (Q07157 416-512): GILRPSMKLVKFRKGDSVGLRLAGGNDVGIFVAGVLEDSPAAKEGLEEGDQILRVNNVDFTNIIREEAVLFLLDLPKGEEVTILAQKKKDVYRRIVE
Sequence of HTRA2, O43464 (O43464 355-458): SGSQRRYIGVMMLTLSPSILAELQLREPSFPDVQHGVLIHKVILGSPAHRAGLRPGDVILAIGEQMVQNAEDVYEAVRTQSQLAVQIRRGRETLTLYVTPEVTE
Sequence of LNX1_1, Q8TBB1 (Q8TBB1 261-371): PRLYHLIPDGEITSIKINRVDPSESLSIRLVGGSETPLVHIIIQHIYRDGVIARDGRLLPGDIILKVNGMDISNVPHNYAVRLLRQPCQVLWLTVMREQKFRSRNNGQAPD
Sequence of Inadl_1, Q8NI35 (Q8NI35 113-229): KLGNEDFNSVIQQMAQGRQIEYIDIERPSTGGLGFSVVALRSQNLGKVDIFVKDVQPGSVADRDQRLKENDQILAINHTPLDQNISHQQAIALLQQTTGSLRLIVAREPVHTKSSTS
Sequence of Inadl_9, Q8NI35 (Q8NI35 1530-1615): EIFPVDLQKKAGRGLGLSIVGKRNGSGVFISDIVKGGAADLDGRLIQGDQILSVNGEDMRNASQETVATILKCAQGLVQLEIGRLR
Sequence of GRIP2_4, Q9C0E4 (Q9C0E4 446-548): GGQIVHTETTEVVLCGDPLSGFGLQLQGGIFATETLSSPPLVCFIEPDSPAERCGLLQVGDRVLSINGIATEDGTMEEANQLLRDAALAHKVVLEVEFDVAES
Sequence of MAGI2_3, Q86UL8 (Q86UL8 600-682): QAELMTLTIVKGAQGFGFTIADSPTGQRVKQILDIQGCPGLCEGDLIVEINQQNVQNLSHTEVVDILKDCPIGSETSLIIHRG
Sequence of FRMPD2_1, Q68DX3 (Q68DX3 770-861): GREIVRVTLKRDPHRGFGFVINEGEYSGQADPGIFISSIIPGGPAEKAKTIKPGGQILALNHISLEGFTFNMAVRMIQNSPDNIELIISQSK
Sequence of Inadl_6, Q8NI35 (Q8NI35 1058-1167): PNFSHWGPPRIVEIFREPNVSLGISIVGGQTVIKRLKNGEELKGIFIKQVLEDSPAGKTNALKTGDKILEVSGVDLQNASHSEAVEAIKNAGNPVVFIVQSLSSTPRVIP
Sequence of NHERF4_2, Q86UT5 (Q86UT5 220-308): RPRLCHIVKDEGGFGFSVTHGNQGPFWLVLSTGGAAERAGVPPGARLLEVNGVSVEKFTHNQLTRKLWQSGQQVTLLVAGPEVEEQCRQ
Sequence of LAP2, Q96RT1 (Q96RT1 other isoform, or with tags, fused parts or gaps): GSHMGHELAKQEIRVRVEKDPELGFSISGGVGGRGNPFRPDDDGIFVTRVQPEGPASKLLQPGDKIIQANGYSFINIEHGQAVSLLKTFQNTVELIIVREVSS
Sequence of IL16_4, Q14005 (Q14005 1229-1329): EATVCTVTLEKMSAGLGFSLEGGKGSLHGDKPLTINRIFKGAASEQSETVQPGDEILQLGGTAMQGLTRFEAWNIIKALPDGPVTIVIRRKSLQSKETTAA
Sequence of DLG4_2, P78352 (P78352 155-259): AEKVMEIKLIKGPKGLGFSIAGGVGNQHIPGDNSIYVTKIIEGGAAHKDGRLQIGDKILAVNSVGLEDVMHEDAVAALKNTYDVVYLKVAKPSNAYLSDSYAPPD
Sequence of PDLIM1, O00151 (O00151 1-87): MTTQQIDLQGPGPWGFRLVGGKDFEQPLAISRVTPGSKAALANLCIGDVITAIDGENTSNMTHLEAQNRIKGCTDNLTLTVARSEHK

Binder | pKd (MAGI2_3, Q86UL8) | pKd (NHERF4_2, Q86UT5) | pKd (LNX1_1, Q8TBB1) | pKd (FRMPD2_1, Q68DX3) | pKd (TJP1_3, Q07157) | pKd (PDLIM1, O00151) | pKd (FRMPD2_2, Q68DX3) | pKd (HTRA2, O43464) | pKd (PDZD2_2, O15018) | pKd (DLG4_2, P78352) | pKd (SCRIB_3, Q14160) | pKd (DLG4_3, P78352) | pKd (Inadl_1, Q8NI35) | pKd (HTRA3, P83110) | pKd (TIAM2, Q8IVF5) | pKd (GOPC, Q9HD26) | pKd (RAPGEF6, Q8TEU7) | pKd (LAP2, Q96RT1) | pKd (LIN7B, Q9HAP6) | pKd (Inadl_9, Q8NI35) | other results
ILRKSTTTTV [PRR16, Q569H4] | 3.74 | below the threshold | below the threshold | below the threshold | below the threshold | below the threshold | below the threshold | below the threshold | 4.18 | 5.2 | 3.67 | 4.12 | below the threshold | below the threshold | below the threshold | 3.92 | below the threshold | below the threshold | below the threshold | below the threshold | pKd (GRIP2_4, Q9C0E4): below the threshold; pKd (IL16_4, Q14005): 3.54; pKd (TX1BP3, O14907): 3.66; pKd (SNTG1, Q9NSN8): 3.49; pKd (DLG3_1, Q92796): 4.26; pKd (Inadl_6, Q8NI35): below the threshold; pKd (PCLO, Q9Y6V0): below the threshold; pKd (TJP2_1, Q9UDY2): 3.83
VKRNSKETVV [MARCHF3, Q86UD3] | 4.2 | below the threshold | below the threshold | 3.8 | below the threshold | below the threshold | 3.81 | below the threshold | 4.17 | 6.03 | 4.51 | 4.94 | below the threshold | below the threshold | 3.73 | below the threshold | below the threshold | 3.54 | 3.86 | below the threshold | pKd (GRIP2_4, Q9C0E4): below the threshold; pKd (IL16_4, Q14005): below the threshold; pKd (TX1BP3, O14907): 4.16; pKd (SNTG1, Q9NSN8): 4.13; pKd (DLG3_1, Q92796): 4.77; pKd (Inadl_6, Q8NI35): below the threshold; pKd (PCLO, Q9Y6V0): below the threshold; pKd (TJP2_1, Q9UDY2): 3.8
LESTTVGTSV [KARS1, Q15046] | 3.73 | below the threshold | 3.97 | below the threshold | below the threshold | below the threshold | 3.79 | below the threshold | 4.87 | 4.35 | 4.4 | 3.58 | below the threshold | below the threshold | 4.05 | below the threshold | below the threshold | 3.92 | 3.79 | 3.67 | pKd (GRIP2_4, Q9C0E4): below the threshold; pKd (IL16_4, Q14005): below the threshold; pKd (TX1BP3, O14907): 3.6; pKd (SNTG1, Q9NSN8): 3.7; pKd (DLG3_1, Q92796): 3.98; pKd (Inadl_6, Q8NI35): below the threshold; pKd (PCLO, Q9Y6V0): below the threshold; pKd (TJP2_1, Q9UDY2): below the threshold
NIAESLESLV [PTPRZ1, P23471] | 4.44 | below the threshold | 4.36 | below the threshold | below the threshold | below the threshold | 4.66 | below the threshold | 5.37 | 5.09 | 3.87 | below the threshold | below the threshold | below the threshold | below the threshold | below the threshold | below the threshold | 4.25 | below the threshold | 3.76 | pKd (GRIP2_4, Q9C0E4): below the threshold; pKd (IL16_4, Q14005): below the threshold; pKd (TX1BP3, O14907): 4.26; pKd (SNTG1, Q9NSN8): 4.94; pKd (DLG3_1, Q92796): 4.29; pKd (Inadl_6, Q8NI35): 4; pKd (PCLO, Q9Y6V0): below the threshold; pKd (TJP2_1, Q9UDY2): below the threshold
